These results are taken from US20090263900.

One data set has as its system ZFN r2182-8 (synthetic). In words: cell_activity. To be noted: pair with 2189-11; K562 cells, 50 bp HA linear donor 6.9 ug; targeted integration 2-9.4% over donors, 0% without ZFN.
The next data set concerns ZFN 2189-11 (synthetic). Description: cell_activity. To be noted: pair with r2182-8; K562 cells, 50 bp HA linear donor 6.9 ug; targeted integration 2-9.4% over donors, 0% without ZFN.

In the data set with ZFN r2182-8 (synthetic), “CCCCACTGTGGGGTGG (double strand) [AAVS1 r2182-8 target half-site]” yielded an activity of 9.4 % TI.
For the sequence “ACTAGGGACAGGATTG (double strand) [AAVS1 2189-11 target half-site]”, in the data set on ZFN 2189-11 (synthetic), the activity is 9.4 % TI.
